Test results reported in doi:10.1101/2024.02.12.579961 (bioRxiv, 2024).

B1: MBP-tagged IAA3/SHY2 (wild type), recombinant (natural protein, Arabidopsis thaliana, UniProt Q38822 1-189, looked up)
chain: MDEFVNLKETELRLGLPGTDNVCEAKERVSCCNNNNKRVLSTDTEKEIESSSRKTETSPPRKAQIVGWPPVRSYRKNNIQSKKNESEHEGQGIYVKVSMDGAPYLRKIDLSCYKGYSELLKALEVMFKFSVGEYFERDGYKGSDFVPTYEDKDGDWMLIGDVPWEMFICTCKRLRIMKGSEAKGLGCGV
B2: MBP-tagged IAA19/MSG2, recombinant (natural protein, Arabidopsis thaliana, UniProt O24409 1-197, looked up)
chain: MEKEGLGLEITELRLGLPGRDVAEKMMKKRAFTEMNMTSSGSNSDQCESGVVSSGGDAEKVNDSPAAKSQVVGWPPVCSYRKKNSCKEASTTKVGLGYVKVSMDGVPYLRKMDLGSSQGYDDLAFALDKLFGFRGIGVALKDGDNCEYVTIYEDKDGDWMLAGDVPWGMFLESCKRLRIMKRSDATGFGLQPRGVDE

Molecular target: the molecule itself
Assay: non-reducing SDS-PAGE

Protein | binding result
B1 | binds
B2 | binds
